# Laboratory results published in patent publication US20240262791A1 (University of California, published 2024).
# B1: Wildtype SR4 nanobody (VHH)
# VHH: QVQLVESGGGLVQAGGSLRLSCAASGFPVYSWNMWWYRQAPGKEREWVAAIESHGDSTRYADSVKGRFTISRDNAKNTVYLQMNSLKPEDTAVYYCYVWVGHTYYGQGTQVTVSA
# Target: Spike protein on SARS-CoV-2 GFP Reporter Virus Particles (pseudotyped lentivirus), wild-type strain (SARS-CoV-2, UniProt P0DTC2 14-1273)
# Assay: cell-based or functional assay
binder,measurement,value
B1,"IC50, inhibition of pseudovirus infection of 293T-ACE2 cells",550 nM
